Values of other authors, collected in US6699832B2 (Pfizer Inc., priority 2000, dated 2004).
Where no end group is shown, it is not given here.

Assays:
neurotensin-1 receptor = neurotensin-1 receptor (Homo sapiens, UniProt P30989); conditions: read-out: binding affinity at the neurotensin-1 receptor
neurotensin-2 receptor = neurotensin-2 receptor (Homo sapiens, UniProt O95665); conditions: read-out: binding affinity at the neurotensin-2 receptor
[1] = tested on: neurotensin-1 and neurotensin-2 receptors; conditions: non-selective antagonist

Sequence of neurotensin-2 receptor (O95665 whole entry): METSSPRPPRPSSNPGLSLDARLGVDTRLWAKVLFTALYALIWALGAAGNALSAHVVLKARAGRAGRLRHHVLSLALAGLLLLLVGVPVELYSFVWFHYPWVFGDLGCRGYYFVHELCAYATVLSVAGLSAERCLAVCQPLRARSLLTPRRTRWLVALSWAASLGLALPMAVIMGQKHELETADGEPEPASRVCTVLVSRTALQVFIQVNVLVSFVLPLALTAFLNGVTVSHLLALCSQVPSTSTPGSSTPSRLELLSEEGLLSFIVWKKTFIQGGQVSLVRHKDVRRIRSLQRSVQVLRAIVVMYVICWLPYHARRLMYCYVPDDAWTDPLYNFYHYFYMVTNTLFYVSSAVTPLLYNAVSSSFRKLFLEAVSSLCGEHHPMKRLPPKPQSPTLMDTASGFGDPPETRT
Sequence of neurotensin-1 receptor (P30989 whole entry): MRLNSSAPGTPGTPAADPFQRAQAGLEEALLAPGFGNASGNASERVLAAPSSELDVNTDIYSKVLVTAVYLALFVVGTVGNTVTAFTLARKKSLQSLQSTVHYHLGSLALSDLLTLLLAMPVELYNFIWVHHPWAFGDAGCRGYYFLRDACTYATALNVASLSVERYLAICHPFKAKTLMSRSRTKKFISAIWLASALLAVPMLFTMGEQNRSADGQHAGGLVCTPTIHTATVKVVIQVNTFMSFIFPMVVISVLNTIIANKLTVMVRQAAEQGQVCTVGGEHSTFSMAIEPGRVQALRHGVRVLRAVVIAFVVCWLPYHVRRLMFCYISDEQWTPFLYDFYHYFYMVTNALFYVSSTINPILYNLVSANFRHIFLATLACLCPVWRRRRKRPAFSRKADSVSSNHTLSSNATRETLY

Compound | Kd (neurotensin-1 receptor) [nM] | Kd (neurotensin-2 receptor) [nM] | affinity at neurotensin-1 versus neurotensin-2 receptors (selectivity) [1]
Trp11 NT(1-13): NT(1-13) in which amino acid 11 is tryptophan; selective neurotensin-1 receptor agonist (QLYENKPRRPWIL; ends and bridges not checked; UniProt P30990 151-163, looked up, variant Y11W) | ~1 | ~27 | –
COc1cccc(OC)c1-c1cc(C(=O)NC2(C(=O)O)C3CC4CC(C3)CC2C4)nn1-c1ccc(C(=O)N(C)CCCN(C)C)cc1C(C)C (stereo not drawn) [SR142948A] | – | – | equal affinity
